We go through three molecules from PMC3281653 (The Journal of Biological Chemistry, 2011).

The target in assay [1] is RanGAP1-SUMO1/UBC9 (human) (UniProt P46060).
Assay [2] has the same target. This is another data set of the same source.
The next assay concerns the target UBC9 (human, UniProt P63279). Briefly: crystal structure.

Read-outs that look alike come from different tables or passages of the source.

Chain of RanGAP1-SUMO1/UBC9 (human) (P46060 419-578, chain 1 of 3): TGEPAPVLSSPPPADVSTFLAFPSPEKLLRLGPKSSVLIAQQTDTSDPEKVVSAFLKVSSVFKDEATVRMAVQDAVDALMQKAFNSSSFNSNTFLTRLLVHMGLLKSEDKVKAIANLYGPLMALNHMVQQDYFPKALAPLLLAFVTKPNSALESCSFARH
Chain of RanGAP1-SUMO1/UBC9 (human) (P63165 18-97, chain 2 of 3, further chain): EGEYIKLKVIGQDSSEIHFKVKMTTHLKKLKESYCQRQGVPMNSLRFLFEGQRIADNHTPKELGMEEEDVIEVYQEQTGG
Chain of RanGAP1-SUMO1/UBC9 (human) (P63279 whole entry, chain 3 of 3, further chain): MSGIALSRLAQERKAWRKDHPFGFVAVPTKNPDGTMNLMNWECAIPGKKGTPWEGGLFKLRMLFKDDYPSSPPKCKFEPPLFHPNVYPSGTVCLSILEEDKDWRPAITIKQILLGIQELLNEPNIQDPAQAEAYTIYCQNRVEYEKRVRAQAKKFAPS
Chain of UBC9 (P63279 whole entry): as the sequence (P63279 whole entry, chain 3 of 3, further chain) above

In turn, IR2SIM-IR1_(II–V) (domain or fragment) yielded a protease protection from SENP1: protection of RanGAP1-SUMO1 against that by IR1 in assay [1] of 144 fold.
Molecule “IR1-M-IR2 (RanBP2 residues 2631–2771) (from UniProt P49792 2631-2771) (domain or fragment)” displayed a protease protection from SENP1: protection of RanGAP1-SUMO1 against that by IR1 in assay [2] of 16 fold.

B1: IR1 (RanBP2 residues 2631–2695) (domain or fragment)
chain: DVLIVYELTPTAEQKALATKLKLPPTFFCYKNRPDYVSEEEEDDEDFETAVKKLNGKLYLDGSEK
Consider B1, for which, in the assay with UBC9, the binding result was “binds”.
